Measured values reported in article PMC8109768, “Differential recognition of HIV-stimulated IL-1β and IL-18 secretion through NLR and NAIP signalling in monocyte-derived macrophages” (PLoS Pathogens, 2021).

B1: gp41TM/CT (domain or fragment)
chain: FIMIVGGLVGLRIVFAVLSIVNRVRQGYSPLSFQTHLPTPRGPDRPEGIEEEGGERDRDRSIRLVNGSLALIWDDLRSLCLFSYHRLRDLLLIVTRIVELLGRRGWEALKYWWNLLQYWSQELKNSAVSLLNATAIAVAEGTDRVIEVVQGACRAIRHIPRRIRQGLERILL

Key:
[1] = biological target: NAIP (human) (UniProt Q13075); assay: SPR; BIAcore 3000; NAIP amine-coupled to a CM5 chip; gp41 proteins (500ng, 1μg, 5μg, 10μg) injected at flow rate 10 ml/min for 240 s; flagellin as positive control; BIA EVALUATION 3.0
[2] = biological target: NAIP (human) (UniProt Q13075); assay: FRET or BRET; FRET between fluorophore-labelled antibodies (Alexa488 donor, Alexa546 acceptor) in monocyte-derived macrophages infected with HIV-1; dequenching of the donor after photobleaching of the acceptor
[3] = biological target: T1, NAIP (human, UniProt Q13075-1 1-1403); assay: SPR; BIAcore 3000; NAIP amine-coupled to a CM5 chip; gp41 proteins (500ng, 1μg, 5μg, 10μg) injected at flow rate 10 ml/min for 240 s; flagellin as positive control; BIA EVALUATION 3.0; settings: both partners purified
T1 construct: NAIP, human, endogenous protein; for SPR pulled out of a human cell lysate with an antibody column; also called human NAIP; endogenous NAIP; source: purified from human cell lysate (NHS column with NAIP antibody LS-B455, dialysis, gel filtration); endogenous, human monocyte-derived macrophages (in cells and in lysate)
T1 sequence (looked up): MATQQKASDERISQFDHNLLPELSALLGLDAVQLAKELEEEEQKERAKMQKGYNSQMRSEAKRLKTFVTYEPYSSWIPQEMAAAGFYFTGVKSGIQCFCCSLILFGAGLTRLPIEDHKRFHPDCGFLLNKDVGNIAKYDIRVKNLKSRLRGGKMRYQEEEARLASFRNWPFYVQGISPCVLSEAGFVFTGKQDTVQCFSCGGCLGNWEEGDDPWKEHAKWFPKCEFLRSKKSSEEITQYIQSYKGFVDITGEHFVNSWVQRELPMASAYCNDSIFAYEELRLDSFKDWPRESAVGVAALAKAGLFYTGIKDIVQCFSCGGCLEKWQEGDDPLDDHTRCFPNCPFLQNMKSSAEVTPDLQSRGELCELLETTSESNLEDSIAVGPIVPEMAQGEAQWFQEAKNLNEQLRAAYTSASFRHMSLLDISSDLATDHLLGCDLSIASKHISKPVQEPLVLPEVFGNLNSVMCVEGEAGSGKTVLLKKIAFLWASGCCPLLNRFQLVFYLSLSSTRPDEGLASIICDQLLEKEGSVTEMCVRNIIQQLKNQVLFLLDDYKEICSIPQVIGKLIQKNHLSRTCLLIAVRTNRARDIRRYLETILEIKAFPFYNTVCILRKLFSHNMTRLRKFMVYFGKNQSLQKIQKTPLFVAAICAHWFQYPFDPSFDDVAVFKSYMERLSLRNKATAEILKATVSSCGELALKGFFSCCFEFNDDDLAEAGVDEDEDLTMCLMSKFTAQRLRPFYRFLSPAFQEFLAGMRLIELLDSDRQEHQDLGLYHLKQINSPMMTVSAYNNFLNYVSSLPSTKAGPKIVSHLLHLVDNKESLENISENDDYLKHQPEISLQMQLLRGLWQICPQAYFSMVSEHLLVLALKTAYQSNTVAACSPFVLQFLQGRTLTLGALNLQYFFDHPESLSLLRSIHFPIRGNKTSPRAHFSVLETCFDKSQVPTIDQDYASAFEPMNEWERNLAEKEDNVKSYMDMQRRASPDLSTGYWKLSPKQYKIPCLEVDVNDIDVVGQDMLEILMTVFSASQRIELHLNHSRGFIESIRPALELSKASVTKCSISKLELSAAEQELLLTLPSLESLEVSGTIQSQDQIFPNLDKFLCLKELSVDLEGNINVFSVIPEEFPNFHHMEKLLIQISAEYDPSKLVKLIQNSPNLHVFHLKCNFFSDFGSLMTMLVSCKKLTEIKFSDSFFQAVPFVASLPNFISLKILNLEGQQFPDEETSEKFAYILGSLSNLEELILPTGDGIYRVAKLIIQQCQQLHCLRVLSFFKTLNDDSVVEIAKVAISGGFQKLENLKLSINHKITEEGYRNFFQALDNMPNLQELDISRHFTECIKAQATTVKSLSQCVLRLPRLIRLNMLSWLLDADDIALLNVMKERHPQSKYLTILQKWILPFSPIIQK

Molecule	Kd [1]	koff [1]	kon [1]	FRET efficiency E [2]	Kd [3]	koff [3]	kon [3]
gp41 CT (from UniProt P04578 707-856) (domain or fragment)	0.413 nM	9.87e-06 s⁻¹	23900 M⁻¹ s⁻¹				
Flagellin (from UniProt P06179 1-495) (natural protein)	0.0247 nM	9.81e-07 s⁻¹	39700 M⁻¹ s⁻¹				
HIV-1 glycoprotein 41 (gp41) (natural protein)				24%			
B1					1.59 nM	6.91e-05 s⁻¹	43500 M⁻¹ s⁻¹
